Here are results for 21 sequences from a protein production outcome set (Wang et al. 2014).

This series can be described thus: label from the status in PepcDB records.
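Also: failed if final PepcDB status was selected cloned or expressed and not failed if soluble or beyond.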

“METRANYVIVGIFTLVAILAAFGFVYWTAAIGDRGETTLLRVRIPGSASGLGRGSFVLFNGVKVGDVKRVYIDVDNPTVAIADTEIDRLTPITKSTQADIGLAGLTGQANIELKGADPKEVKLLDQAEKEGKVAEIVANPSAVTNLLQTAQNIFSRADKVLSELEGFTRDVRGPLTQTVQNVQTFSDALAKNSDGIDKFLSSVSALSEELKGVSGKLDGTLKAAEGLLNAVDRDKIKSIVANVDTVTANLKQTSQQLDGVIKNVDTAVGSVNDFAKQTQGTLAKVDGVLDGVDPAQVRAALANIQKASENANKAAADIAVVTEKFANRADDIDQTIKDAKQLAQRLNDASVRVDGILARVDTLLGSGQADGLMADARDTLKSFKQVADTLNARLGVITDNLARFSGQGLSNVEALVQDSRRSITRIEEAVTDLSRNPQRILSGGDGEVRQFDGRARR”: the protein production result is “failed”.
Turning to “METRYNLKSPAVKRLMKEAAELKDPTDHYHAQPLEDNLFEWHFTVRGPPDSDFDGGVYHGRIVLPPEYPMKPPSIILLTANGRFEVGKKICLSISGHHPETWQPSWSIRTALLAIIGFMPTKGEGAIGSLDYTPEERRALAKKSQDFCCEGCGSAMKDVLLPLKSGSDSSQADQEAKELARQISFKAEVNSSGKTISESDLNHSFSLTDLQDDIPTTFQGATASTSYGLQNSSAASFHQPTQPVAKNTSMSPRQRRAQQQSQRRLSTSPDVIQGHQPRDNHTDHGGSAVLIVILTLALAALIFRRIYLANEYIFDFEL”, the protein production result is reported as “failed”.
To “METSSSSPVKPRRKDKDEDKFRIGATLAFIVVIIGIGVPMWWRTTTVYRVNLPSTEILSLSKIPIKTAVQVAIYTQQTSRGQLLIAELQNAFSDNEIWSVEFKQLSPTPMTQEAHTPAALEKLLLENHVQSVGDFMFIEWPKLQEELLLTTERSALMRSDTPSNKIAQLLHAKILQTYRINQILSTDERMGAKSEAPQPAYDVIVSVLNPKPRLTHAKWNIAMAVKTYIEPWLAKVSGVSNYTVRSQWKYRVAIEADLKQVRDQSKLGRHYALQETALPHLLTSIAQNLSASTTDKPAINLVVYIPPCHIAPLHIYNSKDQRLTRNDVDAFISPPWGGFIIANPPEHVCLAAMSDQEAVPYHVSTTDNMQVMLDQLHKLLDISSELQMEGVKVVDIEQLEPRRWEYEAYLRRSAIRHISTASSTLQSLIKLLDQISYIVIDDEVGAAITNSYADILAAKAALLEHRLADASVLAKRAFVASERGFFDASLLAQLYFPDEQKYAIYIPLFLPIMVPVLSSFNMLRGVLQARRKEKQS” belongs “failed”.
“METYLEIETLIKRIFNSFRHEVEAVLDKRLSGSEYRVLSLISSGLTKTSDLAKTLDVSASHITAITDTLVEEKLITRHRSEVDRRIIELKLTSNAEEFVKEIDKKKKEMIVKRFAVFSEYEQAEFRKLLKKLADGSQSNK”: the protein production result is “failed”.
To “MEVDTMETLIRLFVSILIICVLALMIKKSRCLDNEGVIGSSIMGFILLYFCGFKYLILLLSFFILGVLVSRVGLEKKKAKKMDETCRSLKNVLANGLIPILFAILAIFGFNWALIGYISSIAAATSDTFSSELGILSNEKPRLITTFEVVEKGTDGAITIFGTLAGVLGAFLIGLFGYLLFGDIKIVLCGTAGGIAGNLADSLVGALFERKGILNNEHVNLIATIVGGIIGVLIYCTL” belongs “failed”.
Consider “MEVERKIVSLEALYIVYDADGTVAGELLYLLRKWLGKGHCAACDITHGPRKVKPEWTILQKTGWLGVPLFNIHRDEMEPKLRSAVSCALPCVAALVDNGDYVLLLQPEDLESCKGQVSKLQEKIVEALKDFGFQVNESFTSVVTSDLSDTCPSTLDREKEEDDAVVPF”, for which the protein production entry was “failed”.
With “MEVLKDFLLFYGGLFAITNPIGAVPVFIAVTRNLSPEKRKEIARKTSTTVMVTLLVFALVGEWIFKFFGASTDAFSIAGGIILFRMSLEMLSGKLSSVKISEEEEHISEEAVTLEEVAIIPLAIPLLSGPGAITTTMLYMAKSSTMIEKSIVLLVVVAIGITVWIILSAANRIHQKLGTIGIKVMTRMMGLILASMAVQMVINGVKGAFNI”, the protein production result is recorded as “failed”.
For the sequence “MEVLLDVKERMSILKNFYDEVRVVDPINNIVFSDDFNLKINNKFNEKDCSLSNCYDVWGKKSMCSTCISKKAYLKNDTFIKLEYNKNHVFLVIASPIEFNENKYVVEILKDITNNGSIVDGSGEGNYLDLTMKKMGENLIKDYLTGVYNKRYIDQRFSKEAHRNLKESIPTTVIMTDIDSFKKVNDTYGHLVGDKILRDFAKVLNNNIRENSDWIGRYGGEEFIIVLNNTNLKNGVKVAEKLRKIIEKMSFDYGDLSLKITSSFGVCEVSEKEDPFDTIKNADEKLYMAKMTGRNKTVF”, the protein production result was “failed”.
The entry for “MEVMRGVRVIEGMNGGRFPYCNVVVVGDVVIDAGAGLEVMRKVNASLLVLSHLHPDHSSGAWLFKDVLAPAEGRITLDTLARRFVAPDLVESWKRFISAATGLREFECERYEEGVVVKEPEIVAVPVKGHTMDHHVFLIEQKVLFGADVDLTSFGPFYGNPEADPYLFEREMDKLLDIDFEIFVSAHSKPLEHHHHHH” is “failed”.
For “MEVRWCATSDPEQHKCGNMSEAFREAGIQPSLLCVRGTSADHCVQLIAAQEADAITLDGGAIYEAGKEHGLKPVVGEVYDQEVGTSYYAVAVVRRSSHVTIDTLKGVKSCHTGINRTVGWNVPVGYLVESGRLSVMGCDVLKAVSDYFGGSCVPGAGETSYSESLCRLCRGDSSGEGVCDKSPLERYYDYSGAFRCLAEGAGDVAFVKHSTVLENTDGKTLPSWGQALLSQDFELLCRDGSRADVTEWRQCHLARVPAHAVVVRADTDGGLIFRLLNEGQRLFSHEGSSFQMFSSEAYGQKDLLFKDSTSELVPIATQTYEAWLGHEYLHAMKGLLCDPNRLPPYLRWCVLSTPEIQKCGDMAVAFRRQRLKPEIQCVSAKSPQHCMERIQAEQVDAVTLSGEDIYTAGKKYGLVPAAGEHYAPEDSSNSYYVVAVVRRDSSHAFTLDELRGKRSCHAGFGSPAGWDVPVGALIQRGFIRPKDCDVLTAVSEFFNASCVPVNNPKNYPSSLCALCVGDEQGRNKCVGNSQERYYGYRGAFRCLVENAGDVAFVRHTTVFDNTNGHNSEPWAAELRSEDYELLCPNGARAEVSQFAACNLAQIPPHAVMVRPDTNIFTVYGLLDKAQDLFGDDHNKNGFKMFDSSNYHGQDLLFKDATVRAVPVGEKTTYRGWLGLDYVAALEGMSSQQC”, the protein production result is “failed”.
To “MEVSENATTRGSLALVSIILPVHNAEQWLDECLMSVLQQDFEGAMELSVFNDASKDKSRAIIEKWKVKLEDSGISVVIGGHDSPSPRGVGYSKNQAVAQSTGSYLCFLDSDDVMMPQRVRMQYEAAGQHPTSIIGCQVRRDPPDSTERYTRWINHLTSDQLLTQVFTSHGPTVIMPTWFCSRAWFSHVGPFDEGGQGVPEDLLFFYEHLRKGGGVFRVDHSLLLYRYHLYAATHSVLEMTIWTHRVHFLEEQVLPHWKSFTIWNAGKQGRKLYRSLTAASRHKVVAFSDVDENKIRKGFYCYEDSQERPKPKVPILHFQAAQSPFVICVKLDLTGGEFEDNLKSLDLQEGRDFVHFS” belongs “failed”; to “MEVSERIIIGNKISKITIIANIALSILKILAGVFGKSSALIADGMHSFSDILSTVVVMLGLKLSEKPADESHPYGHERIEPALTKILAVILLVTALMIFYCGLTTIIGGNYQIPGNITIIAALISIFTKEWMYKYTKKGAEQIESSALLADAWHHRSDAFSSVGTLIGVVGAKLGYPILDPIASIVISLFIAKMAFEIYFKALNQLLDRAADSKTIEEIKKIILSVDGVLEIDVLKTRIHSNKIYVDVEISVDKDLSLIEAHNISENVHSQIESKLKRVKHCMVHVNPYLK”, “failed”; to “MEVTNGLNLKDTELRLGLPGAQEEQQLELSCVRSNNKRKNNDSTEESAPPPAKTQIVGWPPVRSNRKNNNNKNVSYVKVSMDGAPYLRKIDLKMYKNYPELLKALENMFKFTVGEYSEREGYKGSGFVPTYEDKDGDWMLVGDVPWDMFSSSCQKLRIMKGSEAPTAL”, “not failed”.
With “MEWEIVNLDMTFKVDAPVEEVFRAWTKPSLFKQWFMTTEETNKVAKNQFEINGDWEIIDVREGVEYRAIGTYIDIVSPYKLTFSFKMPQFSELEDIITVEFVDLTGATEVKFNQGIKVPFEGDTNDFEADKTEVKKEMETGYNLMFERLKQLCEG”, the protein production entry is recorded as “failed”.
Turning to “MEWSLPVDLQEEILSRVPAKSLARWKSTPKQWKGPISIEFLHLLRSTLKFPLLNLHLKSKSIYVTSFTAMVFCYAPPSTKDSRFGIHVQGKPSGFLADEQNKVVVCCKWRSDSINTIYFVGENKHVQVDQRRGDLTLGQSCSFLMNYVPSFVQIQQGTLLAPRT”, the protein production result is listed as “failed”.
Consider “MEYTVHTPSFRYHDLPYQDCLNKVGTVTLQDYRDDLVALIESLNQPPLLLGHSLGFLVAQMAAKKIEIDGMIFM”, for which the protein production result is “failed”.
The entry for “MEYYFTAQKLAVGYDNRPLIENIDFSLKRGEILTLIGPNGAGKSTILKSIARQLSLVSGTIYLDKSDVVTMNGNEFAKKMAVVLTDKLKTELMTCYDVVATGRYPYTGRFGVLSDEDKKAVDEAMELVNVSQIKDKDFTKISDGQRQRVMLSRAICQQPEIIVLDEPTSYLDIKYKLEFLSILQRLKRQKNLTVIMSLHELDMAKRVSDHILCIDGRYVDRYGTPEEVFTDQYVSGLFGITAGSFDETGEDLELEKPDGSARIFVIAGGGLGRKSFRSLQRKGIPFATGIIYENDLDYPAAKALSAEIVSARSFEPVDDALIEKAKELIDACEGVICDRTEFGTYEQFNSRLYEYAVSTGKIIKIPFLEEQLAQL” is “failed”; for “MFAGSIPMYIRVVSITAQSKLQFDMTVTYFENVWSPKVISLGAISAEFVQSNENSGMYIIHYPDKQTAISVFDKIKPEVDEVRTQNRIQITEGKRLFRVD” it is “not failed”.
To “MFAMLHVIVDTNWLLLAFSALMFDLPRYTFSLLSWSLVGIFRNSRPGDRWVEAAVSVIIPTFNGGSGLAPTIASLRQQTLSPLEIIIVDDGSTDDTRAVANRARQDGLVDMVICHGTRCGRSAAINAAARFASGDLIFTIDADTVLERDAIARLAHAFNDPRVAGACGNIAIRNESASLWTGLQSVEYMMSISAGKSILDVVGAIACLSGACSMYRRDVFARQGGLDVGPGEDLEFSLRLRRLGYRVRFVPDAWAETDGPVAAVGLLRQRARWDRDALRIRSMMYGELSFFHPLERLPDTLQRLDFIVFDLIPTMSLPFYSMYIVILFGPAHAILFIGAIYFLLLWISLFNMALAFVLFSRSPSFFSLGAAFIFPFYQGIYMKCARFVSYSSEILFATSRRDDYVPPRVRRALFADEVGKVVS” belongs “failed”; to “MFAYTLTTLTLCCTSILITSYISKRKGTLMEYMVFIMSFSMSIGLSIGFYLGILFKGELLYSTLLAILISGFIGFLIGLRFHLYTALEGMFSGLMASMMGAMITEMLNAQQAHSILFISLLLTITITMSCVIQLLSENFSTFIQQRFLLLLSISVVIIVAVFTTFPDHTPAPSPGHNQHIH”, “failed”; to “MFDIGVNLTSSQFAKDRDDVVACAFDAGVNGLLITGTNLRESQQAQKLARQYSSCWSTAGVHPHDSSQWQAATEEAIIELAAQPEVVAIGECGLDFNRNFSTPEEQERAFVAQLRIAADLNMPVFMHCRDAHERFMTLLEPWLDKLPGAVLHCFTGTREEMQACVAHGIYIGITGWVCDERRGLELRELLPLIPAEKLLIETDAPYLLPRDLTPKPSSRRNEPAHLPHILQRIAHWRGEDAAWLAATTDANVKTLFGIAF”, “not failed”.
